# Source: the domain aggregation screens of Martell et al. (2025)
# Assay: soluble fraction after stress (log2 fold change); higher = more stays soluble; pooled small domains, quantitative proteomics
# Details: stress: 75 degC
# 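Note: 20 min heating vs room temperature control held 20 min.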
row,Sequence,soluble fraction (log2)
1,HMAEDGNMTFEEYAKRWLARQVRYAPSTLESYRRMLGRVYPFIGAIPINRLRPIALENLLAELRKRT,-0.582
2,HMAEEFESMTEARRLELARLVDSRGFVRVTDAAEELGVSDVTIRGDLSELERRGLLTRVHGGAMPVT,-0.00431
3,HMAEKEYYYATDALNLRQGPGMEHTVKGEVVLGERVALLGLEGKWAKIQNAQGTTGYVFSAYLAPS,-0.196
4,HMAEMLENQLKHAKSKQEANEYIAAAIGGVSDDDPDKEYLVAAYNEISKEFHHSSAYHRLPDT,0.16
5,HMAEMRYLDQIYEVNVPLPDLSLEDGDLLARWAVNFHQRYEELFSYRQSDQEIRLVTLRVTVLGELP,-0.65
6,HMAENMNAALRVSSLINQIGTVNAKAKDRIESARKAYDALSEAQKAYVANLTTLETAETSLSKL,0.0786
7,HMAENTIPSVIGKTLSDATFLLESYGYERGGVSEEYSEMPKGVVIRQSPQAGSSADPGTKVNLVVSLGEEI,0.538
8,HMAENTKKWDETGRRYRSYIKLEKRLSENTVESYMRDYMQFAHFILRQWDVAPHKVEPQMVERYMAWLYER,-0.795
9,HMAEPIAAGKYTVSTSGSVLNMRVSPDADSQVLEKIPNGTIVEVTKSVLGWAYVTYNSAQGWVSSAYLV,-1.62
10,HMAEPLMTQIVEIEYADAEGLRENLEQFLTRLDEKTLLGSVLVDRHTNSLIIQAVRSDLERMLPLIETLDR,-0.804
11,HMAEPLYKQVKNKIIQNLTSDEWKPGSVIPSETKLAETYGVGVSTIRMAIGELVAARILIRRQGKGTFVSS,-2.1
12,HMAEQDILQSVYPHIGGQDNVSRTISRNGTLYLMLKDASAVDLKAVKQVPGIADAALERGRLTLQLEE,-0.203
13,HMAEQLGNSRTANMVMLGAMIERTGVISIDSAMEALKATFGPKKEHLLPINRQAMEAGAAAARAV,0.104
14,HMAERVWASLLEIKNAVAIEDAKTLEDVDNSEKIAEERIAALNDDAKHPLAIAFIGKLRQDIAEKKIELA,0.413
15,HMAESSPYTVRPGDTLWKILAQTQNARYNDFPYLYRKFRELNPNITDLNHIVSGQKIIVPHIPG,-0.331
16,HMAESTRSRILNAAIEMMETGGESSVRLSAIAEALGIKEPSIYHHFTNRTELVNAAYIEWYW,-1.07
17,HMAEVDREEALRIALAHAAVARRDVRNLKIERGEENGVPVYKVEFETAFGDFDVAVSRRSGDVVDAD,-0.0382
18,HMAEVIYGAGKTPAQMLGILRTMQAHGQKTVLITRLREEAAEEIGREIPLQYDKTAGVGIVGTLPQPDG,-0.102
19,HMAEVPSLIGKSLDAAKQAIIDAGFKVGSVSYDNSDSYGKGQVMWQQYEPSTKVKKGSSISIKVSKGS,-0.00107
20,HMAEVRTLLVPIELAGMRFDQVLAELLPEFSRSRLAAWIKSGDALLDGHDAKPKGVVRGGEQIEIRLA,-0.0127
21,HMAFAVWVKLVAIGPNYAQLEIEQGTQRNVRTLRPGDDAPEGVRLLSLTPTHAEVQANGIARKLALGQGMA,-3.22
22,HMAFDESLVRSIQELLSELGYSPGKIDGLLGAKTVAAIKAFELEINKDQLTGEPSEELLIALQLAIRSSKM,-1.81
23,HMAFDGIVLKNITNALKELINGKINKIQQSSKDNLTLSIYNQKSYNLYIDISANNYRVNLTTHSE,0.126
24,HMAFDYETYQLTSREFSIIELVADGRSNREIAEALYLGEGTVRNYLSSILEKLELRDRTQLAVFFYQHL,-2.3
25,HMAFIEIMTEGDADGRGFQYPIPTYSITRDFDWSETENNKLLFEMTAKYGTPYFSNYINSDMEPSDV,-1.13
26,HMAGAITEREVEVLELLSRGLGNKEIAKELFVSEATVKSHLSHIYTKLAVDTRAGAVAAAIERRIIRAWR,-2.99
27,HMAGASQAVKAQLRLREMILAGELPGGARIAELTLVEKLGVSRTPIRAALMRLEQEGLLHRLPGGGYAVRT,-2.27
28,HMAGDDEIEKIAQDILAAWPDKVAAYQAGNKGLMGLFMGELMKKSQGKANPKVASGIIQKLLD,0.0201
29,HMAGEDPANLELMRLMDEEYMEHPTKGVLGMVDFLRALGILTGPKRVRRLLRKMGIMAIYPK,0.159
30,HMAGGVFELTGKVTADAKAGDLVYVKAATGAGTKPVVTTVKTGADVIIGWLKEPVSSASVDQKMQVVLA,0.267
